In the supplement of paper PMC10598134 one finds collision cross section data, which are given here for 59 substances.

A short description of this data set: collision cross section of modified peptide (TIMS, N2, iRT-aligned); higher = larger / more extended gas-phase ion. The method in brief: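 On a timsTOF Pro/HT (dda-PASEF, nitrogen, ~2.4 mbar), synthetic peptide pools were analysed after a 120-min nanoflow C18 separation at 60 °C and identified in MaxQuant. Three reference ions served for 1/K0 calibration, with run-wise alignment to the median iRT peptide deviation. Collision cross section comes from the Mason-Schamp equation, using the most abundant feature per charge state averaged over 1–3 technical replicates.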

Where [1] appears, read: charge state: 2, modification: Butyryl.
Where [2] appears, read: charge state: 3, modification: Butyryl.
Setting [3] is: charge state: 3, modification: Trimethyl (K).
The mark [4] stands for this setting: charge state: 2, modification: Citrullination (R).
Where [5] appears, read: charge state: 2, modification: Phospho (Y).
Where [6] appears, read: charge state: 2, modification: Dimethyl (K).
[7] abbreviates: charge state: 3, modification: Dimethyl (K).
Setting [8] is: charge state: 2, modification: Formyl.
Where [9] appears, read: charge state: 2, modification: Succinyl.
Setting [10] is: charge state: 2, modification: Glutarylation.
Setting [11] is: charge state: 3, modification: Glutarylation.
Setting [12] is: charge state: 2, modification: Biotin.
The mark [13] stands for this setting: charge state: 2, modification: Acetyl (K).
The mark [14] stands for this setting: charge state: 3, modification: Acetyl (K).
Setting [15] is: charge state: 2, modification: Methyl (K).
[16] abbreviates: charge state: 3, modification: Methyl (K).
[17] abbreviates: charge state: 3, modification: Succinyl.
Where [18] appears, read: charge state: 2, modification: GlyGly (K).
Setting [19] is: charge state: 3, modification: GlyGly (K).
[20] abbreviates: charge state: 2, modification: Trimethyl (K).
Where [21] appears, read: charge state: 3, modification: Methyl (R).
Setting [22] is: charge state: 2, modification: Malonyl.

± gives the standard deviation.

For INNFSADIKDSK [_INNFSADIK(Butyryl)DSK_], the collision cross section came to 405.78 ± 0.75 Å² under setting [1] and 461.68 ± 3.2 Å² under setting [2].

For the substance “ASDTSSETVFGKR [_ASDTSSETVFGK(Butyryl)R_]”, the collision cross section worked out at 403.53 ± 0.74 Å² under setting [1] and 479.86 ± 1.9 Å² under setting [2].

For “IVFSGNLFQHQEDSKK [_IVFSGNLFQHQEDSK(Trimethyl (K))K_]”, the collision cross section under setting [3] is given as 536.81 ± 0.89 Å².

Regarding “GRGGAESHTFK [_GR(Citrullination (R))GGAESHTFK_]”, the collision cross section stood at 374.44 ± 0.39 Å² under setting [4] and 436.66 ± 2.2 Å² (charge state: 3, modification: Citrullination (R)).

“CQGGQETQEYR [_CQGGQETQEY(Phospho (Y))R_]” gave a collision cross section under setting [5] of 381.17 Å².

DDSNLYINVK [_DDSNLY(Phospho (Y))INVK_] registered a collision cross section under setting [5] of 368.08 ± 0.064 Å².

The substance “LQAAYAGDKADDIQK [_LQAAYAGDK(hydroxyisobutyryl)ADDIQK_]” gave a collision cross section (charge state: 2, modification: hydroxyisobutyryl) of 440.97 ± 0.91 Å².

In the case of “ITGKNQVTATK [_ITGK(Dimethyl (K))NQVTATK_]”, the collision cross section is listed as 369.07 ± 1.1 Å² under setting [6] and 427.9 Å² under setting [7].

Substance “DLSTVEALQNLKNLK [_DLSTVEALQNLK(Formyl)NLK_]” gave a collision cross section under setting [8] of 474.81 ± 0.7 Å².

On to VGEFSGANKEK [_VGEFSGANK(Succinyl)EK_], for which, under setting [9], the collision cross section came out at 357.27 ± 0.73 Å².

Regarding “TQDQISNIKYHEEFEK [_TQDQISNIK(Crotonyl)YHEEFEK_]”, under “charge state: 3, modification: Crotonyl”, the collision cross section stood at 560.13 Å².

Consider DHLSDKESK [_DHLSDK(Gluratylation)ESK_], for which the collision cross section by setting is: under setting [10], 353.36 ± 0.63 Å²; under setting [11], 411.89 Å².

As for “VNVEAPDVNLEGLGGKLK [_VNVEAPDVNLEGLGGK(Butyryl)LK_]”, the collision cross section is 466.95 ± 0.75 Å² under setting [1] and 548.3 ± 0.14 Å² under setting [2].

With “FGSRGGPGGGFR [_FGSR(Citrullination (R))GGPGGGFR_]”, under setting [4], the collision cross section is 349.6 ± 0.64 Å².

Take LLEQKTQESQK [_LLEQK(Biotin)TQESQK_]: under setting [12], the collision cross section came to 419.49 ± 1.1 Å².

SDDESSQKDIK [_SDDESSQK(Formyl)DIK_] came in with a collision cross section under setting [8] of 368.14 ± 1.1 Å².

For the substance ILDLKTGTVK [_ILDLK(Dimethyl (K))TGTVK_], the collision cross section under setting [6] is reported as 355.49 ± 0.51 Å².

For the substance TLDEILQEKK [_TLDEILQEK(Acetyl (K))K_], the collision cross section reads like this: under setting [13], 377 ± 0.3 Å²; under setting [14], 448.44 Å².

As for “VDIDAPDVSIEGPDAKLK [_VDIDAPDVSIEGPDAK(Methyl (K))LK_]”, the collision cross section by setting is: under setting [15], 453.93 ± 0.34 Å²; under setting [16], 544.25 ± 0.42 Å².

As to “GTISAPGKVVTAAAQAK [_GTISAPGK(Succinyl)VVTAAAQAK_]”, the collision cross section runs as follows: under setting [9], 439.98 ± 0.51 Å²; under setting [17], 520.85 ± 1.6 Å².

As for “DTPTSAGPNSFNKGK [_DTPTSAGPNSFNK(GlyGly (K))GK_]”, the collision cross section runs as follows: under setting [18], 413.5 ± 3.1 Å²; under setting [19], 464.37 ± 0.33 Å².

Substance HGVYNPNK [_HGVY(Phospho (Y))NPNK_] showed a collision cross section under setting [5] of 346.37 ± 0.75 Å².

On to “GEKGNPGVGTQGPR [_GEKGNP(Hydroxyproline)GVGTQGPR_]”, for which the collision cross section (charge state: 2, modification: Hydroxyproline) is given as 371.11 ± 0.55 Å² and the collision cross section (charge state: 3, modification: Hydroxyproline) amounted to 431.33 ± 1.3 Å².

On to “TQAYQDQKPGTSGLR [_TQAYQDQK(Methyl (K))PGTSGLR_]”, for which the collision cross section came to 422.44 Å² under setting [15] and 472.98 ± 2.7 Å² under setting [16].

Turning to “AGQKLIDVNHYAK [_AGQK(Dimethyl (K))LIDVNHYAK_]”, under setting [7], the collision cross section was found to be 472.93 ± 1.2 Å².

The substance LELAQYR [_LELAQY(Nitro (Y))R_] displayed a collision cross section (charge state: 2, modification: Nitro (Y)) of 326.89 ± 0.56 Å².

In turn, “SPPLPEHQKIPCNSAEPK [_SPPLPEHQK(hydroxyisobutyryl)IPCNSAEPK_]” registered a collision cross section (charge state: 3, modification: hydroxyisobutyryl) of 544.57 Å².

Turning to “DDSFLGKLGGTLAR [_DDSFLGK(Trimethyl (K))LGGTLAR_]”, the collision cross section under setting [20] is reported as 427.63 Å² and the collision cross section under setting [3] stood at 472.67 ± 1.8 Å².

Turning to ILDLKTGTVK [_ILDLK(Methyl (K))TGTVK_], the collision cross section under setting [15] is 356.44 ± 1 Å².

In turn, “APPIDRSILPTAPR [_APPIDR(Methyl (R))SILPTAPR_]” had a collision cross section under setting [21] of 489.12 ± 2.5 Å².

For the substance “TLDEILQEKK [_TLDEILQEK(Trimethyl (K))K_]”, the collision cross section runs as follows: under setting [20], 388.3 ± 0.013 Å²; under setting [3], 439.75 ± 2.4 Å².

Turning to “VGIDTPDIDIHGPEGKLK [_VGIDTPDIDIHGPEGK(Butyryl)LK_]”, the collision cross section was 496.6 ± 1 Å² under setting [1] and 542.04 ± 1.1 Å² under setting [2].

“LLIVSTTPYSEKDTK [_LLIVSTTPYSEK(Formyl)DTK_]” registered a collision cross section under setting [8] of 448.09 ± 0.69 Å² and a collision cross section (charge state: 3, modification: Formyl) of 480.73 ± 1.5 Å².

In turn, “ALASIDSKLNQAK [_ALASIDSK(Propionyl)LNQAK_]” had a collision cross section (charge state: 2, modification: Propionyl) of 398.32 Å².

For the substance “HELQANCYEEVKDR [_HELQANCYEEVK(GlyGly (K))DR_]”, the collision cross section under setting [19] is reported as 529.53 ± 1.6 Å².

Turning to “VYIASSSGSTAIKK [_VYIASSSGSTAIK(Malonyl)K_]”, the collision cross section under setting [22] is reported as 409.24 ± 0.039 Å².

Substance “GFALVGVGSEASSKK [_GFALVGVGSEASSK(Acetyl (K))K_]” displayed a collision cross section under setting [13] of 429.07 ± 17 Å² and a collision cross section under setting [14] of 499.93 ± 0.98 Å².

With “RFGGPVHHQAQR [_R(Methyl (R))FGGPVHHQAQR_]”, the collision cross section under setting [21] was 496.52 ± 2.2 Å².

Regarding “TLDEILQEKK [_TLDEILQEK(Gluratylation)K_]”, the collision cross section under setting [10] is recorded as 387.75 ± 3.2 Å² and the collision cross section under setting [11] is 452.89 ± 2.4 Å².

In the case of “VQGGALEDSQLVAGVAFKK [_VQGGALEDSQLVAGVAFK(Dimethyl (K))K_]”, the collision cross section under setting [7] is on record as 554.94 ± 0.79 Å².

With VTLEVGKVIQQGR [_VTLEVGK(Biotin)VIQQGR_], the collision cross section is recorded as 422.26 Å² under setting [12] and 501.27 Å² (charge state: 3, modification: Biotin).

With “GRGTSQLAEGATAK [_GR(Methyl (R))GTSQLAEGATAK_]”, the collision cross section by setting is: (charge state: 2, modification: Methyl (R)) 391.78 ± 1.4 Å²; under setting [21], 464.6 ± 2.7 Å².

As to “DSLGVSFPEELACK [_DSLGVS(HexNAc (ST))FPEELACK_]”, the collision cross section (charge state: 2, modification: HexNAc (ST)) was 437.05 Å².

For the substance “LLIVSTTPYSEKDTK [_LLIVSTTPYSEK(Trimethyl (K))DTK_]”, the collision cross section is, setting by setting: under setting [20], 468.15 ± 1.2 Å²; under setting [3], 501.69 ± 1.8 Å².

As to “SDSGKPYYYNSQTK [_SDSGK(Gluratylation)PYYYNSQTK_]”, the collision cross section by setting is: under setting [10], 430.3 ± 1.5 Å²; under setting [11], 493.09 Å².

For the substance IGNSYFKEEK [_IGNSYFK(Malonyl)EEK_], the collision cross section under setting [22] was found to be 378.34 Å².

“SLKLNTAEDAK [_SLK(Trimethyl (K))LNTAEDAK_]”: the collision cross section runs as follows: under setting [20], 378.59 ± 0.02 Å²; under setting [3], 461.43 ± 2.4 Å².

The substance LQLEIDQKK [_LQLEIDQK(Succinyl)K_] registered a collision cross section under setting [9] of 370.18 ± 1.1 Å².

The substance LQLEIDQKK [_LQLEIDQK(Acetyl (K))K_] registered a collision cross section under setting [13] of 364.82 ± 0.76 Å².

Substance VNALKNLQVK [_VNALK(Crotonyl)NLQVK_] came in with a collision cross section (charge state: 2, modification: Crotonyl) of 376.57 ± 0.8 Å².

Substance KFGVLSDNFK [_K(Formyl)FGVLSDNFK_] gave a collision cross section under setting [8] of 368.1 ± 0.89 Å².

As for “VGTASVLQPVKK [_VGTASVLQPVK(Gluratylation)K_]”, the collision cross section reads like this: under setting [10], 391.34 ± 0.52 Å²; under setting [11], 415.52 ± 3.5 Å².

IQQELQTAKK [_IQQELQTAK(Butyryl)K_] yielded a collision cross section under setting [1] of 385.32 ± 2.2 Å² and a collision cross section under setting [2] of 441.3 Å².

Regarding “VDIDVPDVNIEGPDAKLK [_VDIDVPDVNIEGPDAK(Succinyl)LK_]”, the collision cross section runs as follows: under setting [9], 479.51 ± 1 Å²; under setting [17], 508.07 ± 2 Å².

As for “GETASKLQSEISR [_GETASK(GlyGly (K))LQSEISR_]”, the collision cross section is, setting by setting: under setting [18], 415.57 ± 0.85 Å²; under setting [19], 455.84 ± 1.3 Å².

The substance VFIGNLNTLVVKK [_VFIGNLNTLVVK(Formyl)K_] showed a collision cross section under setting [8] of 407.78 ± 0.74 Å².

As to GAEKTEVAEPR [_GAEK(GlyGly (K))TEVAEPR_], the collision cross section reads like this: under setting [18], 384.75 ± 0.88 Å²; under setting [19], 448.79 ± 1.6 Å².

In turn, “VLDSGAPIKIPVGPETLGR [_VLDSGAPIK(Formyl)IPVGPETLGR_]” had a collision cross section under setting [8] of 463.34 ± 1.2 Å².

Consider “ASDTSSETVFGKR [_ASDTSSETVFGK(Dimethyl (K))R_]”, for which the collision cross section reads like this: under setting [6], 409.3 ± 1.1 Å²; under setting [7], 469.84 ± 1.6 Å².
